The target in experiment [1] is human parathyroid hormone receptor 2 (human, UniProt P49190). The experiment is described as follows: cell-based or functional assay.
Experiment [2] deals with human parathyroid hormone receptor 1 (human, UniProt Q03431). In words: cell-based or functional assay.

Starred links: 1 amine or outer side, 2 acyl side, 3 side chain; linkers in the order of their positions; H or OH if unused. Non-standard residues stand in square brackets, D forms with d. No end group written: not given here. hSer(OMe) = COCC[C@H](N[*:1])C(=O)[*:2]; 1Nal = N[C@@H](Cc1cccc2ccccc12)C(=O)O; β3hI = CC[C@H](C)[C@H](N)CC(=O)O; β3hR = N=C(N)NCCC[C@H](N)CC(=O)O; β3hF = N[C@H](CC(=O)O)Cc1ccccc1; β3hK = NCCCC[C@H](N)CC(=O)O; Nle = CCCC[C@H](N)C(=O)O; Aib = CC(C)(N)C(=O)O

For the molecule SVSEIQL[Nle]HNLGKHLNS[β3hI]ERVE[1Nal]LRKLLQDVHNK-NH2 [[Nle^8, β-hIle^18, 1-Nal^23, Leu^27, Lys^34] hPTH (1-34)-NH2], the “hPTHR-2 EC50 (nM), luciferase reporter gene assay” value (“hPTHR-2 EC50 (nM)” for short) in experiment [1] came out at 17 nM. Further, the “hPTHR-1 EC50 (nM), CRE-luciferase reporter gene assay” value (“hPTHR-1 EC50 (nM)” below) in experiment [2] amounted to 0.1 nM.
Turning to SVSEIQL[Nle]HNLGKHLNS[β3hF]ERVE[1Nal]LRKLLQDVHNF-NH2 [[Nle^8, β-hPhe^18, 1-Nal^23, Leu^27] hPTH (1-34)-NH2], the “hPTHR-2 EC50 (nM)” value in experiment [1] came to 10 nM. Also, in experiment [2], the “hPTHR-1 EC50 (nM)” value came out at 0.11 nM.
For [Aib]VSEIQL[Nle]HSLGKHLKS[β3hI]ERVE[1Nal]LRKLLQRV-NH2 [[Aib^1, Nle^8, Ser^10, Lys^16, β-hIle^18, 1-Nal^23, Leu^27, Arg^30] hPTH (1-31)-NH2], in that order: 6 nM and 0.09 nM.
For the molecule SVSEIQL[Nle]HSLGKHLKS[β3hI]ERVE[1Nal]LRKLLQRVHEE-NH2 [[Nle^8, Ser^10, Lys^16, β-hIle^18, 1-Nal^23, Leu^27, Arg^30, Glu^33, Glu^34] hPTH (1-34)-NH2], in experiment [1], the “hPTHR-2 EC50 (nM)” value amounted to 6 nM. In addition, the “hPTHR-1 EC50 (nM)” value in experiment [2] was 0.04 nM.
With SVSEIQL[Nle]HNLGKHLNS[β3hI]ERVE[1Nal]LRKLLQDVHNE-NH2 [[Nle^8, β-hIle^18, 1-Nal^23, Leu^27, Glu^34] hPTH (1-34)-NH2], in experiment [1], the “hPTHR-2 EC50 (nM)” value was found to be 57 nM. Further, the “hPTHR-1 EC50 (nM)” value in experiment [2] worked out at 0.12 nM.
On the same counts, the results for [Aib]VSEIQL[Nle]HNLGKHLNS[β3hI]ERVE[1Nal]LRKLLQDVHNF-NH2 [[Aib^1, Nle^8, β-hIle^18, 1-Nal^23, Leu^27] hPTH (1-34)-NH2] are 16 nM and 0.04 nM.
On the same counts, the results for [Aib]VSEIQL[Nle]HSLGKHLKS[β3hI]ERVE[1Nal]LRKLLQRVHEF-NH2 [[Aib^1, Nle^8, Ser^10, Lys^16, β-hIle^18, 1-Nal^23, Leu^27, Arg^30, Glu^33] hPTH (1-34)-NH2] are 6 nM and 0.09 nM.
Take SVSEIQL[Nle]HNL[Aib]KHLNS[β3hI]ERVE[1Nal]LRKLLQDVHNF-NH2 [[Nle^8, Aib^12, β-hIle^18, 1-Nal^23, Leu^27] hPTH (1-34)-NH2]: the “hPTHR-2 EC50 (nM)” value in experiment [1] was 13 nM. Also, in experiment [2], the “hPTHR-1 EC50 (nM)” value was 0.23 nM.
As for SVSEIQL[Nle]HNLGKHLKS[β3hI]ERVE[1Nal]LRKLLQDVHNF-NH2 [[Nle^8, Lys^16, β-hIle^18, 1-Nal^23, Leu^27] hPTH (1-34)-NH2], the “hPTHR-2 EC50 (nM)” value in experiment [1] was determined as 30 nM. Further, the “hPTHR-1 EC50 (nM)” value in experiment [2] amounted to 0.08 nM.
On to SVSEIQL[Nle]HNLGKHLKS[β3hI]ERVE[1Nal]LRKLLQRVHEF-NH2 [[Nle^8, Lys^16, β-hIle^18, 1-Nal^23, Leu^27, Arg^30, Glu^33] hPTH (1-34)-NH2], for which the “hPTHR-2 EC50 (nM)” value in experiment [1] turned out to be 14 nM. Further, the “hPTHR-1 EC50 (nM)” value in experiment [2] was found to be 0.09 nM.
On the same counts, the results for SVSEIQL[Nle]HSLGKHLKS[β3hI]ERVE[1Nal]LRKLLQRV-NH2 [[Nle^8, Ser^10, Lys^16, β-hIle^18, 1-Nal^23, Leu^27, Arg^30] hPTH (1-31)-NH2] are 7 nM and 0.08 nM.
For the molecule SVSEIQL[Nle]HNLGKHLNS[β3hI]ERVE[1Nal]LRKLLQRVHNF-NH2 [[Nle^8, β-hIle^18, 1-Nal^23, Leu^27, Arg^30] hPTH (1-34)-NH2], the “hPTHR-2 EC50 (nM)” value in experiment [1] is 7 nM. For the same molecule, the “hPTHR-1 EC50 (nM)” value in experiment [2] is 0.18 nM.
For SVSEIQL[Nle]HNL[Aib][Aib]HLNS[β3hI]ERVE[1Nal]LRKLLQDVHNF-NH2 [[Nle^8, Aib^12,13, β-hIle^18, 1-Nal^23, Leu^27] hPTH (1-34)-NH2], in that order: 34 nM and 0.25 nM.
Consider SVSEIQLXHNLGXHLNSXERVEXLRKLLQDVHNF (Nle^8, Aib^13, β-hIle^18, 1-Nal^23, C-terminal NH2 (amide)) [[Nle^8, Aib^13, β-hIle^18, 1-Nal^23, Leu^27] hPTH (1-34)-NH2], for which the “hPTHR-2 EC50 (nM)” value in experiment [1] turned out to be 68 nM. Further, the “hPTHR-1 EC50 (nM)” value in experiment [2] came out at 0.14 nM.
For [Aib]VSEIQL[Nle]HSLGKHLKS[β3hI]ERVE[1Nal]LRKLLQRVHEE-NH2 [[Aib^1, Nle^8, Ser^10, Lys^16, β-hIle^18, 1-Nal^23, Leu^27, Arg^30, Glu^33, Glu^34] hPTH (1-34)-NH2], in experiment [1], the “hPTHR-2 EC50 (nM)” value stood at 4 nM. Besides, the “hPTHR-1 EC50 (nM)” value in experiment [2] was 0.04 nM.
In the case of [Aib]VSEIQL[Nle]HNLGKHLNS[β3hR]ERVE[1Nal]LRKLLQDVHNF-NH2 [[Aib^1, Nle^8, β-hArg^18, 1-Nal^23, Leu^27] hPTH (1-34)-NH2], the “hPTHR-2 EC50 (nM)” value in experiment [1] was 16 nM. Besides, the “hPTHR-1 EC50 (nM)” value in experiment [2] worked out at 0.05 nM.
On to SVSEIQL[Nle]HSLGKHLKS[β3hI]ERVE[1Nal]LRKLLQRVHEF-NH2 [[Nle^8, Ser^10, Lys^16, β-hIle^18, 1-Nal^23, Leu^27, Arg^30, Glu^33] hPTH(1-34)-NH2], for which, in experiment [1], the “hPTHR-2 EC50 (nM)” value turned out to be 8 nM. In experiment [2], the “hPTHR-1 EC50 (nM)” value came out at 0.12 nM.
In the case of SVSEIQL[Nle]HNLGKHLKS[β3hI]ERVE[1Nal]LRKLLQRVHNF-NH2 [[Nle^8, Lys^16, β-hIle^18, 1-Nal^23, Leu^27, Arg^30] hPTH (1-34)-NH2], the “hPTHR-2 EC50 (nM)” value in experiment [1] is 14 nM. Also, the “hPTHR-1 EC50 (nM)” value in experiment [2] stood at 0.14 nM.
With [Aib]VSEIQL[Nle]HNLGKHLN[β3hF][hSer(OMe)]ERVE[1Nal]LRKLLQDVHNF-NH2 [[Aib^1, Nle^8, β-hPhe^17, hSer(OMe)^18, 1-Nal^23, Leu^27] hPTH-(1-34)-NH2], in experiment [1], the “hPTHR-2 EC50 (nM)” value was 117 nM. Further, in experiment [2], the “hPTHR-1 EC50 (nM)” value is 0.1 nM.
In the case of [Aib]VSEIQL[Nle]HNLGKHLKS[β3hI]ERVE[1Nal]LRKLLQRVHEF-NH2 [[Aib^1, Nle^8, Lys^16, β-hIle^18, 1-Nal^23, Leu^27, Arg^30, Glu^33] hPTH (1-34)-NH2], the “hPTHR-2 EC50 (nM)” value in experiment [1] was found to be 6 nM. Also, the “hPTHR-1 EC50 (nM)” value in experiment [2] amounted to 0.09 nM.

B1: [Aib^1, Nle^8, hSer(OMe)^18, β-hLys^19, 1-Nal^23, Leu^27] hPTH (1-$$4)-NH2 (peptide)
peptide: [Aib]VSEIQL[Nle]HNLGKHLNS[hSer(OMe)][β3hK]RVE[1Nal]LRKLLQDVHNF-NH2
modifications: N-terminus assumed
SMILES: CCCC[C@H](NC(=O)[C@H](CC(C)C)NC(=O)[C@H](CCC(N)=O)NC(=O)[C@@H](NC(=O)[C@H](CCC(=O)O)NC(=O)[C@H](CO)NC(=O)[C@@H](NC(=O)C(C)(C)N)C(C)C)[C@@H](C)CC)C(=O)N[C@@H](Cc1c[nH]cn1)C(=O)N[C@@H](CC(N)=O)C(=O)N[C@@H](CC(C)C)C(=O)NCC(=O)N[C@@H](CCCCN)C(=O)N[C@@H](Cc1c[nH]cn1)C(=O)N[C@@H](CC(C)C)C(=O)N[C@@H](CC(N)=O)C(=O)N[C@@H](CO)C(=O)N[C@@H](CCOC)C(=O)N[C@@H](CCCCN)CC(=O)N[C@@H](CCCNC(=N)N)C(=O)N[C@H](C(=O)N[C@@H](CCC(=O)O)C(=O)N[C@@H](Cc1cccc2ccccc12)C(=O)N[C@@H](CC(C)C)C(=O)N[C@@H](CCCNC(=N)N)C(=O)N[C@@H](CCCCN)C(=O)N[C@@H](CC(C)C)C(=O)N[C@@H](CC(C)C)C(=O)N[C@@H](CCC(N)=O)C(=O)N[C@@H](CC(=O)O)C(=O)N[C@H](C(=O)N[C@@H](Cc1c[nH]cn1)C(=O)N[C@@H](CC(N)=O)C(=O)N[C@@H](Cc1ccccc1)C(N)=O)C(C)C)C(C)C
For the molecule B1, the “hPTHR-2 EC50 (nM)” value in experiment [1] was determined as 3 nM. Further, the “hPTHR-1 EC50 (nM)” value in experiment [2] was 0.05 nM.
Regarding [Aib]VSEIQL[Nle]HNLGKHLNS[β3hF]ERVE[1Nal]LRKLLQDVHNF-NH2 [[Aib^1, Nle^8, β-hPhe^18, 1-Nal^23, Leu^27 hPTH (1-34)-NH2], the “hPTHR-2 EC50 (nM)” value in experiment [1] was 5 nM. Moreover, in experiment [2], the “hPTHR-1 EC50 (nM)” value was 0.06 nM.

The record behind these values is patent publication US20110195900A1, “PEPTIDIC PTH RECEPTOR AGONISTS” (FERRING B.V., priority 2008, published 2011).
